From patent US11643691B2, “Predictive biomarkers for cancer immunotherapy and methods of using same” (Duke University, priority 2018, dated 2023)

Experiments:
Type in all cases: cell-based, Murine
[1] = tested on: DCs; experiment: qRT-PCR / qPCR array / immunoblot gene expression in DCs
Experimental: Dendritic Cell Conditioning: DCs were treated with Wnt3a (100 ng/mL), Wnt5a (200 ng/mL), LPS (1 μg/mL), 1-MT (1 mM), 2DG (1 mM), or ETO (100 μM), 2-DG(2-deoxy-d-glucose, 1 mM), Oligomycin (1 μM), succinylacetone (250 μM), […]
(§1) Antibodies, Immunoprecipitation, and Immunoblot Analysis: Primary antibodies including CPT1A (Cell signaling), PPAR-γ (Santa Cruz Biotechnology), β-catenin, β-actin (Millipore), p-AMPK(T172)/AMPK (Cell signaling), p-AKT(T308)/Akt (Cell Signaling) were used at 1:1000. Secondary antibodies including goat anti-rabbit IgG-HRP (Millipore) and goat anti-mouse IgG-HRP (Millipore) were used at 1:5000. Cells were lysed in Laemmli sample buffer after treatment and subjected to SDS-polyacrylamide gel electrophoresis and immunoblot analysis. For immunoprecipitation, cells were lysed in radio immunoprecipitation assay (RIPA) buffer [10 mM sodium phosphate (pH 8.0), 150 mM NaCl, 1% Triton X-100, 1% sodium deoxycholate, and 0.1% SDS in the presence of 1 mM DTT, 1 mM phenylmethylsulfonylfluoride, and a protease inhibitor cocktail (Sigma)], precleared with protein A beads, and then incubated with 1 μg of antibody against β-catenin or isotype control IgG with protein A-agarose beads on a rotator overnight at 4° C. After 3 washes with RIPA buffer, immunoprecipitated complexes were eluted in sample buffer by boiling and subjected to immunoblot analysis. Immunoblots were visualized by chemiluminescence substrate (ThermoFisher) and imaged by a ChemiDoc XRSplus system (BioRad).
RNA Isolation, RT-qPCR, qPCR Array: Total RNA was isolated by RNeasy Plus Mini Kit(Qiagen). RNA(500 ng) were used in cDNA Synthesis (iScript, BioRad). Quantification of mRNA for genes involved in PPARγ signaling was performed using Mouse PrimePCR PPAR Array according to the manufacturer's protocol (BioRad). Real-time PCR was performed using an ABI7500 Real-Time PCR system (Life Technologies). Data analysis utilized the PrimePCR Analysis Software (BioRad). Conventional qPCR was performed using validated primers, and SsoAdvanced Universal SYBR Green Super mix (BioRad) or Taqman probes (Applied Biosystems) for heme synthesis enzymes.

[2] = tested on: AMPK; experiment: Thr-172 phospho-AMPK immunoblot analysis of DCs; conditions: Wnt5a 200 ng/mL, 24 and 48 hrs
Description: as §1, with “Data is representative of 3 independent experiments. […] Data is representative of 3 independent experiments. […] Antibodies,” for “Antibodies,”

[3] = tested on: bone-marrow-derived DCs (BMDCs); experiment: Extracellular lactate assay (surrogate for glycolysis); conditions: BMDC culture media, 0 to 48 hr
Experimental: Lactate measurement: L-Lactate was measured by lactate dehydrogenase conversion of L-lactate+NAD+ to pyruvate+NADH following treatment with […] (Pesce et al., 1975). Lactate standards and samples were read at NADH specific absorbance 340 nm. For lactate measurement in Wnt5a time course, BMDCs were seeded in a 48-well plate at 1 million cell per well. BMDCs were treated with 100 ng/ml of recombinant Wnt5a from 0 to 48 hours. For extracellular lactate determination, 0.5 ml of supernatant media was collected directly from the culture, deproteinized by polyethylene glycol precipitation (25% w/v PEG-8000, sigma), and clarified by centrifugation at 20,000 g for 5 min. […] L-lactate was measured by lactate dehydrogenase (LDH, final 2 U/ml, Sigma) conversion of L-lactate+NAD+(β-Nicotinamide adenine dinucleotide, Sigma) to pyruvate+NADH in Glycine Buffer solution (final concentration Glycine 0.2M, Hydrazine 0.17M to destroy pyruvate allowing reaction to run to complete oxidation of lactate, Chloroform 0.0125%, Sigma). Reaction was incubated at 37° C. for 30 minute (without CO2), L-lactate standards and samples were read at NADH specific absorbance 340 nm (Infinite 200 PRO, Tecan).

[4] = tested on: DCs; experiment: BODIPY and fatty acid uptake assay; conditions: TF2-C12 uptake, BODIPY
Experimental: BODIPY and Fatty Acid Uptake Assay: DCs were stained in 0.5 μg/ml BODIPY 493/503 in PBS for 15 min to determine neutral lipid content (Herber et al., 2010). Fatty acid uptake measurement in DCs were performed using a dodecanoic acid fluorescent TF2-C12 fatty acid (Sigma) according to the manufacturer's protocol.

B1: Wnt5a: Recombinant Human/Mouse Wnt5a Protein (R&D Systems) (protein, UniProt P41221 62-380, looked up)
Protein Wnt-5a: IIGAQPLCSQLAGLSQGQKKLCHLYQDHMQYIGEGAKTGIKECQYQFRHRRWNCSTVDNTSVFGRVMQIGSRETAFTYAVSAAGVVNAMSRACREGELSTCGCSRAARPKDLPRDWLWGGCGDNIDYGYRFAKEFVDARERERIHAKGSYESARILMNLHNNEAGRRTVYNLADVACKCHGVSGSCSLKTCWLQLADFRKVGDALKEKYDSAAAMRLNSRGKLVQVNSRFNSPTTQDLVYIDPSPDYCVRNESTGSLGTQGRLCNKTSEGMDGCELMCCGRGYDQFKTVQTERCHCKFHWCCYVKCKKCTEIVDQFVCK
B1 was tested, and the “IL-6 and IL-12 expression in primary DCs” value ([1]; qRT-PCR) was “suppresses IL-6 and IL-12 expression in primary DCs”, the “expression of Alas1 and further enzymes of PpIX synthesis” value ([1]; qRT-PCR) was “upregulated expression of Alas1 and several additional enzymes involved in PpIX synthesis” and the “expression of TCA cycle enzymes (Idh1, Idh2, Oghd, Dld, Dlst)” value ([1]; qRT-PCR) was “stimulated the expression of isocitrate dehydrogenase”. The “expression of hexokinase (Hk) and phosphofructokinase-1 (Pfk1)” value ([1]; qRT-PCR, after 4-8 hr of stimulation) was “downregulated the expression of the rate-limiting glycolytic enzymes”, the “PPAR-γ (Pparg) and CPT1A (Cpt1a) expression” value ([1]; real-time qPCR and immunoblot, murine and human DCs for rWnt5a) was “induces upregulation of Pparg and Cpt1a” and the “AMPK activation (Thr-172 phospho-AMPK)” value [2] was “suppressed AMPK activation”. The lactate production [3] was “suppresses lactate production” and the “DC fatty acid uptake and lipid stores” value [4] was “enhance DC fatty acid uptake and lipid stores”.
